Data on 1 molecule can be found in paper PMC10932818 (Cancer immunology research, 2024).

The experiment concerns the target recombinant Fc-tagged extracellular domain of LILRB3 (LILRB3-ECD) (human, UniProt O75022 24-443, glycosylated (production from mammalian NS0 cells)). In words: BLI.

Sequence of recombinant Fc-tagged extracellular domain of LILRB3 (LILRB3-ECD) (O75022 24-443): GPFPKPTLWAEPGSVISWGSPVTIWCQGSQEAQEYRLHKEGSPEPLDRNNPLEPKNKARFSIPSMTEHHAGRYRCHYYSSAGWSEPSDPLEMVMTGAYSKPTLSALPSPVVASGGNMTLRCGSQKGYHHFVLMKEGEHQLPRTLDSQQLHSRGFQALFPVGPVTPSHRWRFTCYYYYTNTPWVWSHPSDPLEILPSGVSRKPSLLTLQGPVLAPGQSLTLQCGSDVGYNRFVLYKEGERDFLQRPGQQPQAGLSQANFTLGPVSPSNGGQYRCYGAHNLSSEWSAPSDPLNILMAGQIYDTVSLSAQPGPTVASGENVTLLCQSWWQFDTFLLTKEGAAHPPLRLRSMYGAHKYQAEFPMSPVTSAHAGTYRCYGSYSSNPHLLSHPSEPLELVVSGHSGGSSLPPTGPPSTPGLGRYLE

B1: recombinant human galectin-4 (Galectin-4-His) (natural protein, UniProt P56470 1-323, looked up)
chain: MAYVPAPGYQPTYNPTLPYYQPIPGGLNVGMSVYIQGVASEHMKRFFVNFVVGQDPGSDVAFHFNPRFDGWDKVVFNTLQGGKWGSEERKRSMPFKKGAAFELVFIVLAEHYKVVVNGNPFYEYGHRLPLQMVTHLQVDGDLQLQSINFIGGQPLRPQGPPMMPPYPGPGHCHQQLNSLPTMEGPPTFNPPVPYFGRLQGGLTARRTIIIKGYVPPTGKSFAINFKVGSSGDIALHINPRMGNGTVVRNSLLNGSWGSEEKKITHNPFGPGQFFDLSIRCGLDRFKVYANGQHLFDFAHRLSAFQRVDTLEIQGDVTLSYVQI
What is called Kd is the free concentration of one partner at which half of the binding sites on the other are occupied at equilibrium, for simple one-to-one binding. Turning to B1, the Kd worked out at 44 nM.
